Experimental data from patent US20100136005A1 (Genentech, published 2010).
Residue numbers refer to the chain shown, from its start. Values belong to the binder of their own block, whether it stands above or below them.

What was measured:
[1] = target: T1, human CD11a (human, UniProt P20701 26-1170); assay: cell-based or functional assay
[2] = target: T1, human CD11a; assay: cell-based or functional assay; remark: listed apart in the source
[3] = target: T2, rhesus CD11a (rhesus, UniProt H9Z8N3 26-1169); assay: cell binding, rhesus against human CD11a
T2 construct: whole, on cells; also called rhCD11a
T2 sequence: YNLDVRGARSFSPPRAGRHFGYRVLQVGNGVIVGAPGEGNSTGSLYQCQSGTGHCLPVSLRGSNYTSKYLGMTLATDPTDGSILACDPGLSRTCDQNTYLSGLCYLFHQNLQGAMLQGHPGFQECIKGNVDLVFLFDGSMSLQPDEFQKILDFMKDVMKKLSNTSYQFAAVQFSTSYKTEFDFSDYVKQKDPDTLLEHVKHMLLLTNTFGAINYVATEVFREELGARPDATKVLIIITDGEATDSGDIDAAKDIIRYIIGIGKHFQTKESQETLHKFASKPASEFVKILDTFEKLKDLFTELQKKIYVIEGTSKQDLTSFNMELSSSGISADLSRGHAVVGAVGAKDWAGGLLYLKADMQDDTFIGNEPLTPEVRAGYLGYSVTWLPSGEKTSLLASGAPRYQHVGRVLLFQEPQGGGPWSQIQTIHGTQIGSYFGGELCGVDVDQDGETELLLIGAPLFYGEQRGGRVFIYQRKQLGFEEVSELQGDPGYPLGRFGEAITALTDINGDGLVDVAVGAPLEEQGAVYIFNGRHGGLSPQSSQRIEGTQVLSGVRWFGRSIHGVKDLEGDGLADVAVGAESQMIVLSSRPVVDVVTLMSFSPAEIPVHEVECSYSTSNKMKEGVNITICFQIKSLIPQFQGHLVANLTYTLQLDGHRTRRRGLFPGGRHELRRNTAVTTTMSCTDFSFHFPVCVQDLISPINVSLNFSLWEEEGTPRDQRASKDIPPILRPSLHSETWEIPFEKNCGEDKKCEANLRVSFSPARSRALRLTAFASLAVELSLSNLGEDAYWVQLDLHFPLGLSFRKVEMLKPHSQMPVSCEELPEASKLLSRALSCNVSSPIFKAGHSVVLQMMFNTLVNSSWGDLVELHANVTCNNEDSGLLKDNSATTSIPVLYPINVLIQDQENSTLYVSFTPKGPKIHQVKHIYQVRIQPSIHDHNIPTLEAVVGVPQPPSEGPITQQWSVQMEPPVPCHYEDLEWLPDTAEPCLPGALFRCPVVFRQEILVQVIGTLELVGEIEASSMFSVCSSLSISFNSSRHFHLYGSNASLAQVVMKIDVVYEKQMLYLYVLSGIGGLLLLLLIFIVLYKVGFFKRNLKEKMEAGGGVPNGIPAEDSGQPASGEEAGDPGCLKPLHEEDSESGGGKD

[4] = target: T1, human CD11a; assay: FACScan, Jurkat cells
Protocol: (§1) Aliquots of 10⁶ Jurkat T-cells were incubated with serial dilutions of humanized and control antibodies in PBS-0.1% BSA-10 mM sodium azide for 45 min at 4° C. The cells were washed and then incubated in fluorescein-conjugated goat anti-human F(ab′)₂ (Organon Teknika, Westchester, Pa.) for 45 min at 4° C. Cells were washed and analysed on a FACScan (Becton Dickinson, Mountain View, Calif.). 8×10³ cells were acquired by list mode and gated by forward light scatter versus side light scatter, thereby excluding dead cells and debris.

[5] = target: T2, rhesus CD11a; assay: binding to rhesus peripheral blood lymphocytes; end assigned by the printed EC50s
[6] = target: T2, rhesus CD11a; assay: rhesus EC50 of the variant against human EC50 of HuIgG1; end assigned by the printed EC50s
[7] = target: T2, rhesus CD11a; assay: binding to rhesus peripheral blood lymphocytes
[8] = target: T2, rhesus CD11a; assay: binding to rhesus peripheral blood lymphocytes; ratio to HuIgG1 EC50 (45.6 nM)
[9] = target: T1, human CD11a; assay: FACScan, Jurkat cells; ratio to HuIgG1 EC50 (0.042 nM)
Protocol: as §1

[10] = target: T2, rhesus CD11a; assay: binding to rhesus peripheral blood lymphocytes; ratio to HuIgG1 EC50 (45.6 nM); remark: listed apart in the source

B3: H2C11 (antibody, V domains shown)
VH: EVQLVESGGGLVQPGGSLRLSCAASGYSFTGHWMNWVRQAPGKGLEWVGMIAPASSNTRYNQKFKDRFTISVDKSKNTLYLQMNSLRAEDTAVYYCARGIYFYGTTYFDYWGQGTLVTVSS
VL: DIQMTQSPSSLSASVGDRVTITCRASKTISKYLAWYQQKPGKAPKLLIYSGSTLQSGVPSRFSGSGSGTDFTLTISSLQPEDFATYYCQQHNEYPLTFGQGTKVEIKR
fold improvement over the EC50 of HuIgG1 for rhesus CD11a [5]: 240 to 415 fold
fold weaker than the EC50 of HuIgG1 for human CD11a [6]: 3 to 5 fold

B4: AspH54Ala (antibody, human IgG1, V domains shown)
VH: B3 VH with A52H, A54S, S55A, N57E
VL: DIQMTQSPSSLSASVGDRVTITCRASKTISKYLAWYQQKPGKAPKLLIYSGSTLQSGVPSRFSGSGSGTDFTLTISSLQPEDFATYYCQQHNEYPLTFGQGTKVEIK
notes: HuIgG1 variant (human IgG1); also called AspH54 change to Ala
fold improvement over HuIgG1 [7]: 3 fold

B7: AspH54Lys (antibody, human IgG1, V domains shown)
VH: B3 VH with A52H, A54S, S55K, N57E
VL: B4 VL
notes: HuIgG1 variant (human IgG1); also called AspH54 change to Lys
Variant EC50/HuIgG1 EC50 [8]: 3.8 ratio

B9: AspH54Asn (antibody, human IgG1, V domains shown)
VH: B3 VH with A52H, A54S, S55N, N57E
VL: B4 VL
notes: HuIgG1 variant (human IgG1); also called AspH54 change to Asn
fold improvement of rhesus binding (against HuIgG1) [7]: 10 fold
Variant EC50/HuIgG1 EC50 [9]: 26 ratio
Variant EC50/HuIgG1 EC50 [8]: 0.1 ratio

B10: AspH54Glu (antibody, human IgG1, V domains shown)
VH: B3 VH with A52H, A54S, S55E, N57E
VL: B4 VL
notes: HuIgG1 variant (human IgG1); also called AspH54 change to Glu
Variant EC50/HuIgG1 EC50 [9]: 16 ratio

B11: H2A1 (antibody, human IgG1, V domains shown)
VH: B3 VH with S55D, N57E
VL: B4 VL
notes: HuIgG1 variant (human IgG1); also called HisH52Ala/SerH53Ala; HisH52Ala-SerH53Ala
fold improvement in binding compared to HuIgG1 [7]: 77 fold

B14: AspH54Gln (antibody, human IgG1, V domains shown)
VH: B3 VH with A52H, A54S, S55Q, N57E
VL: B4 VL
notes: HuIgG1 variant (human IgG1); also called AspH54 change to Gln
Variant EC50/HuIgG1 EC50 [9]: 20 ratio
Variant EC50/HuIgG1 EC50 [8]: 4.4 ratio

B15: H2 (antibody, human IgG1, V domains shown)
VH: B3 VH with S55D, S56A, N57E
VL: B4 VL
notes: HuIgG1 variant (human IgG1); also called variant H2; HisH52Ala/SerH53Ala/SerH55Ala
fold better than HuIgG1 [7]: 18 fold

Continued, values first:

IC50 Value (nM), Jurkat:HuK cell adhesion [1]: 0.13 nM
IC50 Value (nM), human mixed lymphocyte response [2]: 0.38 nM
fold reduction in binding (rhesus against human CD11a) [3]: ~1000 fold
B1: humanized MHM24 HuIgG1 (antibody, V domains shown)
VH: B3 VH with A52H, A54S, S55D, N57E
VL: B3 VL
notes: F(ab)-8 VL and VH fused to human constant light and IgG1 heavy chains; also called huMHM24

fold reduction in binding (against F(ab)-2) [4]: 3 fold
B2: humanized MHM24 F(ab)-4 (Fab, V domains shown)
VH: B3 VH with Y27F, A52H, A54S, S55D, N57E, V72R, K74N
VL: B4 VL with T53S, Q55E

Variant EC50/HuIgG1 EC50 [8]: 0.9 ratio
B5: AspH54Ser (antibody, human IgG1, V domains shown)
VH: B3 VH with A52H, A54S, N57E
VL: B4 VL
notes: HuIgG1 variant (human IgG1); also called AspH54 change to Ser

fold improvement in binding (against F(ab)-2) [4]: 23 fold
B6: humanized MHM24 F(ab)-5 (Fab, V domains shown)
VH: B3 VH with Y27F, A52H, A54S, S55D, N57E, K76S, N77S
VL: B4 VL with T53S, Q55E
notes: F(ab) with human CL and CH1; Worked back from F(ab)-8

fold improvement in binding (against F(ab)-6) [4]: 3 fold
B8: humanized MHM24 F(ab)-7 (Fab, V domains shown)
VH: B3 VH with A52H, A54S, S55D, N57E, K76S, N77S
VL: B4 VL
notes: as for B6

fold improvement over HuIgG1 [7]: 3 fold
B12: GluH56Ala (antibody, human IgG1, V domains shown)
VH: B3 VH with A52H, A54S, S55D, N57A
VL: B4 VL
notes: HuIgG1 variant (human IgG1)

Var.EC50/HuIgG1 EC50 [10]: 13.3 ratio
B13: SerL52Ala (antibody, human IgG1, V domains shown)
VH: B3 VH with A52H, A54S, S55D, N57E
VL: B3 VL with S52A
notes: HuIgG1 variant (human IgG1)

fold improvement in binding (against F(ab)-5) [4]: 4 fold
B16: humanized MHM24 F(ab)-6 (Fab, V domains shown)
VH: B3 VH with Y27F, A52H, A54S, S55D, N57E, K76S, N77S
VL: B4 VL
notes: as for B6

IC50 Value (nM), Jurkat:HuK cell adhesion [1]: 0.09 nM
IC50 Value (nM), human mixed lymphocyte response [2]: 0.19 nM
fold reduction in binding (rhesus against human CD11a) [3]: ~1000 fold
B17: murine MHM24 (antibody, V domains shown)
VH: EVQLQQPGAELMRPGASVKLSCKASGYSFTGHWMNWVRQRPGQGLEWIGMIHPSDSETRLNQKFKDKATLTVDKSSSSAYMQLSSPTSEDSAVYYCARGIYFYGTTYFDYWGQGTTLTVSS
VL: DVQITQSPSYLAASPGETISINCRASKTISKYLAWYQEKPGKTNKLLIYSGSTLQSGIPSRFSGSGSGTDFTLTISSLEPEDFAMYYCQQHNEYPLTFGTGTKLELKR
notes: Murine anti-human CD11a MAb; also called muMHM24; murMHM24

IC50 Value (nM), Jurkat:HuK cell adhesion [1]: 0.1 nM
B18: chimeric MHM24 IgG1 (antibody, V domains shown)
VH: B17 VH
VL: B17 VL
